{
  "source": "patent US10526371B2",
  "about": "“Hydrogel-forming peptides” (Universiteit Gent, priority 2015, dated 2020)",
  "assay": "Peptide self-assembly / gelation conditions",
  "format": "physicochemical",
  "conditions": "for time of gelation (self-supporting gel formed) / gelation condition: TFA salt; for time of gelation (self-supporting gel formed): at its own gelation condition",
  "procedure": "Peptide self-assembly was analyzed in i) a PBS solution (10 mM), ii) a PBS/mQ mixture (1:1 v:v, mQ water with a resistivity of […]) or iii) a NaCl aqueous solution (150 mM). The TFA salt of reference peptide SEQ NO. 23 (1 mg) was dissolved in 50 μl mQ water, followed by the addition of 50 μl PBS solution. This mixture was left to rest overnight, resulting in a 1% w/v hydrogel. The TFA salt of mixed α/β-peptides SEQ ID NO 1 and SEQ ID NO 2 (2 mg) was dissolved in mQ (100 μL) and PBS/mQ mixture (100 μL), respectively. […] The TFA salt of mixed α/β-peptide SEQ ID NO 3 (3 mg) was dissolved in PBS (100 μL) to probe gelation. All self-assembled gels were analyzed by circular dichroism (CD) and Fourier transform infrared (FT-IR) spectroscopy, as well as cryogenic transmission electron microscopy (Cryo-TEM).\n(SEQ ID NO:22 (=10-mer)), 100 μl mQ water was added to 2 mg of TFA-salt of pure peptide, then vortexed and sonicated. As a result, a transparent self-supporting gel was formed immediately. A gelation condition of 2 w/v % in mQ water was found.\nfor H-Fβ^2hFEFQFK-NH2 (SEQ ID NO:19), 100 μl of PBS was added to 2 mg of TFA-salt of pure peptide, then vortexed and sonicated. After overnight resting, a self-supporting gel was formed. A gelation condition of 2 w/v % in PBS was determined.",
  "note": "Numbered stars: 1 amine (or outer) side, 2 acyl side, 3 side chain; on linkers, the order of the positions; unused ones are H or OH. Square brackets hold non-standard residues; d marks the D form. β3hCha = beta-3-homo-cyclohexylalanine, O=C(C[C@H](CC1CCCCC1)N[*:1])[*:2]; β3hW = N[C@H](CC(=O)O)Cc1c[nH]c2ccccc12; β3hF = N[C@H](CC(=O)O)Cc1ccccc1",
  "data": [
    {"substance": "H-Glu-β^3hPhe-Phe-Lys-β^3hPhe-Phe-NH2 (H-E[β3hF]FK[β3hF]F-NH2; SMILES NCCCC[C@H](NC(=O)[C@H](Cc1ccccc1)NC(=O)C[C@H](Cc1ccccc1)NC(=O)[C@@H](N)CCC(=O)O)C(=O)N[C@H](CC(=O)N[C@@H](Cc1ccccc1)C(N)=O)Cc1ccccc1) [SEQ ID NO 12]", "values": [
      {"measurement": "Gelation condition % (w/v)", "setting": "in mQ/PBS 1:0.5", "result": "1.5% (mQ/PBS 1:0.5) % (w/v)"}
    ]},
    {"substance": "H-Phe-Gln-β^3hPhe-Phe-Gln-β^3hPhe-Phe-Lys-OH (H-FQ[β3hF]FQ[β3hF]FK-OH; SMILES NCCCC[C@H](NC(=O)[C@H](Cc1ccccc1)NC(=O)C[C@H](Cc1ccccc1)NC(=O)[C@H](CCC(N)=O)NC(=O)[C@H](Cc1ccccc1)NC(=O)C[C@H](Cc1ccccc1)NC(=O)[C@H](CCC(N)=O)NC(=O)[C@@H](N)Cc1ccccc1)C(=O)O) [SEQ ID NO 5]", "values": [
      {"measurement": "Gelation condition % (w/v)", "setting": "in mQ", "result": "2% (mQ) % (w/v)"}
    ]},
    {"substance": "H-Phe-Gln-β^3hPhe-Phe-Lys-NH2 (H-FQ[β3hF]FK-NH2; SMILES NCCCC[C@H](NC(=O)[C@H](Cc1ccccc1)NC(=O)C[C@H](Cc1ccccc1)NC(=O)[C@H](CCC(N)=O)NC(=O)[C@@H](N)Cc1ccccc1)C(N)=O) [SEQ ID NO 9]", "values": [
      {"measurement": "Gelation condition % (w/v)", "setting": "in PBS", "result": "3% (PBS) % (w/v)"}
    ]},
    {"substance": "H-Phe-Glu-Phe-Gln-Phe-Lys-β^3hPhe-Phe-NH2 (H-FEFQFK[β3hF]F-NH2; SMILES NCCCC[C@H](NC(=O)[C@H](Cc1ccccc1)NC(=O)[C@H](CCC(N)=O)NC(=O)[C@H](Cc1ccccc1)NC(=O)[C@H](CCC(=O)O)NC(=O)[C@@H](N)Cc1ccccc1)C(=O)N[C@H](CC(=O)N[C@@H](Cc1ccccc1)C(N)=O)Cc1ccccc1) [SEQ ID NO 21]", "values": [
      {"measurement": "Gelation condition % (w/v)", "setting": "in mQ/PBS 1:1", "result": "1.5% (mQ/PBS 1:1) % (w/v)"}
    ]},
    {"substance": "H-Phe-Glu-Phe-Gln-β^3hPhe-Phe-Lys-NH2 (H-FEFQ[β3hF]FK-NH2; SMILES NCCCC[C@H](NC(=O)[C@H](Cc1ccccc1)NC(=O)C[C@H](Cc1ccccc1)NC(=O)[C@H](CCC(N)=O)NC(=O)[C@H](Cc1ccccc1)NC(=O)[C@H](CCC(=O)O)NC(=O)[C@@H](N)Cc1ccccc1)C(N)=O) [SEQ ID NO 18]", "values": [
      {"measurement": "Gelation condition % (w/v)", "setting": "in PBS", "result": "2% (PBS) % (w/v)"}
    ]},
    {"substance": "H-Phe-Glu-β^3Phe-Tyr-Gln-β^3hPhe-Tyr-Lys-OH (H-FE[β3hF]YQ[β3hF]YK-OH) [SEQ ID NO 4]", "values": [
      {"measurement": "Gelation condition % (w/v)", "setting": "in PBS", "result": "2% (PBS) % (w/v)"}
    ]},
    {"substance": "H-Phe-Glu-β^3hCha-Phe-Gln-β^3hCha-Phe-Lys-OH (H-FE[β3hCha]FQ[β3hCha]FK-OH) [SEQ ID NO 8]", "values": [
      {"measurement": "Gelation condition % (w/v)", "setting": "in mQ", "result": "3% (mQ) % (w/v)"}
    ]},
    {"substance": "H-Phe-Glu-β^3hPhe-Phe-Gln-Phe-Gln-β^3hPhe-Phe-Lys-NH2 (H-FE[β3hF]FQFQ[β3hF]FK-NH2; SMILES NCCCC[C@H](NC(=O)[C@H](Cc1ccccc1)NC(=O)C[C@H](Cc1ccccc1)NC(=O)[C@H](CCC(N)=O)NC(=O)[C@H](Cc1ccccc1)NC(=O)[C@H](CCC(N)=O)NC(=O)[C@H](Cc1ccccc1)NC(=O)C[C@H](Cc1ccccc1)NC(=O)[C@H](CCC(=O)O)NC(=O)[C@@H](N)Cc1ccccc1)C(N)=O) [SEQ ID NO 22]", "values": [
      {"measurement": "time of gelation (self-supporting gel formed)", "result": "immediately"},
      {"measurement": "gelation condition", "setting": "in mQ water", "result": 2, "unit": "w/v %"},
      {"measurement": "Gelation condition % (w/v)", "setting": "in mQ", "result": "2% (mQ) % (w/v)"}
    ]},
    {"substance": "H-Phe-Glu-β^3hPhe-Phe-Gln-Phe-Lys-NH2 (H-FE[β3hF]FQFK-NH2; SMILES NCCCC[C@H](NC(=O)[C@H](Cc1ccccc1)NC(=O)[C@H](CCC(N)=O)NC(=O)[C@H](Cc1ccccc1)NC(=O)C[C@H](Cc1ccccc1)NC(=O)[C@H](CCC(=O)O)NC(=O)[C@@H](N)Cc1ccccc1)C(N)=O) [SEQ ID NO 13]", "values": [
      {"measurement": "Gelation condition % (w/v)", "setting": "in PBS", "result": "2% (PBS) % (w/v)"}
    ]},
    {"substance": "H-Phe-Glu-β^3hPhe-Phe-Gln-Phe-Lys-Phe-NH2 (H-FE[β3hF]FQFKF-NH2; SMILES NCCCC[C@H](NC(=O)[C@H](Cc1ccccc1)NC(=O)[C@H](CCC(N)=O)NC(=O)[C@H](Cc1ccccc1)NC(=O)C[C@H](Cc1ccccc1)NC(=O)[C@H](CCC(=O)O)NC(=O)[C@@H](N)Cc1ccccc1)C(=O)N[C@@H](Cc1ccccc1)C(N)=O) [SEQ ID NO 20]", "values": [
      {"measurement": "Gelation condition % (w/v)", "setting": "in mQ/PBS 1:1", "result": "1.5% (mQ/PBS 1:1) % (w/v)"}
    ]},
    {"substance": "H-Phe-Glu-β^3hPhe-Phe-Lys-NH2 (H-FE[β3hF]FK-NH2; SMILES NCCCC[C@H](NC(=O)[C@H](Cc1ccccc1)NC(=O)C[C@H](Cc1ccccc1)NC(=O)[C@H](CCC(=O)O)NC(=O)[C@@H](N)Cc1ccccc1)C(N)=O) [SEQ ID NO 6]", "values": [
      {"measurement": "Gelation condition % (w/v)", "setting": "in PBS", "result": "3% (PBS) % (w/v)"}
    ]},
    {"substance": "H-Phe-Glu-β^3hPhe-Phe-Lys-OH (H-FE[β3hF]FK-OH; SMILES NCCCC[C@H](NC(=O)[C@H](Cc1ccccc1)NC(=O)C[C@H](Cc1ccccc1)NC(=O)[C@H](CCC(=O)O)NC(=O)[C@@H](N)Cc1ccccc1)C(=O)O) [SEQ ID NO 7]", "values": [
      {"measurement": "Gelation condition % (w/v)", "setting": "in mQ", "result": "3% (mQ) % (w/v)"}
    ]},
    {"substance": "H-Phe-Glu-β^3hPhe-Phe-Lys-Phe-NH2 (H-FE[β3hF]FKF-NH2; SMILES NCCCC[C@H](NC(=O)[C@H](Cc1ccccc1)NC(=O)C[C@H](Cc1ccccc1)NC(=O)[C@H](CCC(=O)O)NC(=O)[C@@H](N)Cc1ccccc1)C(=O)N[C@@H](Cc1ccccc1)C(N)=O) [SEQ ID NO 11]", "values": [
      {"measurement": "Gelation condition % (w/v)", "setting": "in PBS", "result": "2% (PBS) % (w/v)"}
    ]},
    {"substance": "H-Phe-Glu-β^3hPhe-Phe-Lys-β^3hPhe-Phe-NH2 (H-FE[β3hF]FK[β3hF]F-NH2; SMILES NCCCC[C@H](NC(=O)[C@H](Cc1ccccc1)NC(=O)C[C@H](Cc1ccccc1)NC(=O)[C@H](CCC(=O)O)NC(=O)[C@@H](N)Cc1ccccc1)C(=O)N[C@H](CC(=O)N[C@@H](Cc1ccccc1)C(N)=O)Cc1ccccc1) [SEQ ID NO 16]", "values": [
      {"measurement": "Gelation condition % (w/v)", "setting": "in mQ", "result": "2% (mQ) % (w/v)"}
    ]},
    {"substance": "H-Phe-β^3hPhe-Glu-Phe-Gln-Phe-Lys-NH2 (H-F[β3hF]EFQFK-NH2; SMILES NCCCC[C@H](NC(=O)[C@H](Cc1ccccc1)NC(=O)[C@H](CCC(N)=O)NC(=O)[C@H](Cc1ccccc1)NC(=O)[C@H](CCC(=O)O)NC(=O)C[C@H](Cc1ccccc1)NC(=O)[C@@H](N)Cc1ccccc1)C(N)=O) [SEQ ID NO 19]", "values": [
      {"measurement": "time of gelation (self-supporting gel formed)", "result": "overnight"},
      {"measurement": "gelation condition", "setting": "in PBS", "result": 2, "unit": "w/v %"},
      {"measurement": "Gelation condition % (w/v)", "setting": "in PBS", "result": "2% (PBS) % (w/v)"}
    ]},
    {"substance": "H-Trp-Glu-β^3hPhe-Phe-Gln-Trp-Lys-NH2 (H-WE[β3hF]FQWK-NH2; SMILES NCCCC[C@H](NC(=O)[C@H](Cc1c[nH]c2ccccc12)NC(=O)[C@H](CCC(N)=O)NC(=O)[C@H](Cc1ccccc1)NC(=O)C[C@H](Cc1ccccc1)NC(=O)[C@H](CCC(=O)O)NC(=O)[C@@H](N)Cc1c[nH]c2ccccc12)C(N)=O) [SEQ ID NO 15]", "values": [
      {"measurement": "Gelation condition % (w/v)", "setting": "in PBS", "result": "2% (PBS) % (w/v)"}
    ]},
    {"substance": "H-Trp-Glu-β^3hTrp-Trp-Gln-Trp-Lys-NH2 (H-WE[β3hW]WQWK-NH2; SMILES NCCCC[C@H](NC(=O)[C@H](Cc1c[nH]c2ccccc12)NC(=O)[C@H](CCC(N)=O)NC(=O)[C@H](Cc1c[nH]c2ccccc12)NC(=O)C[C@H](Cc1c[nH]c2ccccc12)NC(=O)[C@H](CCC(=O)O)NC(=O)[C@@H](N)Cc1c[nH]c2ccccc12)C(N)=O) [SEQ ID NO 14]", "values": [
      {"measurement": "Gelation condition % (w/v)", "setting": "in mQ/PBS 1:0.5", "result": "1.5% (mQ/PBS 1:0.5) % (w/v)"}
    ]},
    {"substance": "H-β^3hPhe-Phe-Glu-Phe-Gln-Phe-Lys-NH2 (H-[β3hF]FEFQFK-NH2; SMILES NCCCC[C@H](NC(=O)[C@H](Cc1ccccc1)NC(=O)[C@H](CCC(N)=O)NC(=O)[C@H](Cc1ccccc1)NC(=O)[C@H](CCC(=O)O)NC(=O)[C@H](Cc1ccccc1)NC(=O)C[C@@H](N)Cc1ccccc1)C(N)=O) [SEQ ID NO 17]", "values": [
      {"measurement": "Gelation condition % (w/v)", "setting": "in PBS", "result": "2% (PBS) % (w/v)"}
    ]},
    {"substance": "H-β^3hPhe-Phe-Glu-β^3hPhe-Phe-Lys-NH2 (H-[β3hF]FE[β3hF]FK-NH2; SMILES NCCCC[C@H](NC(=O)[C@H](Cc1ccccc1)NC(=O)C[C@H](Cc1ccccc1)NC(=O)[C@H](CCC(=O)O)NC(=O)[C@H](Cc1ccccc1)NC(=O)C[C@@H](N)Cc1ccccc1)C(N)=O) [SEQ ID NO 10]", "values": [
      {"measurement": "Gelation condition % (w/v)", "setting": "in PBS", "result": "1% (PBS) % (w/v)"}
    ]}
  ]
}
